Source: patent publication US20190225670A1, “COMPOUNDS AND METHODS FOR ACTIVATING TIE2 SIGNALING” (ASCLEPIX THERAPEUTICS, LLC, priority 2016, published 2019)

Experiments:
MEC monolayers = test: FITC Transwell permeability assay; format: cell-based, human; conditions: each agent alone
Procedure: The integrity of these junctions is also important for the regulation of monolayer permeability by controlling the size of intercellular openings. The effect of the AXT107 on EC permeability was further investigated by the transendothelial diffusion of FITC-labeled dextran across MEC monolayers seeded onto permeable Transwell® substrates.
Transwell, twenty-four-well inserts (Corning) were coated with 7.5 μg/cm^2 FN1 for two hours at 37° C., aspirated, and then dried for thirty minutes at room temperature. Wells were then seeded with 7.5×10^4 MECs in 100 μl of EBM-2 media (without phenol red) and allowed to settle for thirty minutes at room temperature. 1 ml of EGM-2 media was then added to the bottom chamber and an additional 200 μl to the top chamber. The plate was incubated for twenty-four hours at 37° C. after which the media was aspirated and an additional 7.5×10^4 MECs were plated in each well as described above. After forty-eight hours at 37° C., the media was aspirated from both chambers and the cells were washed twice in dPBS containing Ca^2+ and Mg^2+, once with EBM-2 media (without phenol red) and serum starved in EBM-2 media applied to both chambers for two hours at 37° C. After this incubation, 100 μM AXT107 or an equivalent amount of DMSO vehicle was added and incubated for an additional ninety minutes. In the top chamber, the cells were then treated with 200 ng/ml Ang2, 100 ng/ml VEGFA, both, or PBS control and in the bottom chamber, the cells were then treated with 25 μg/ml FITC-Dextran (40 kDa MW). AXT107 was also added in both chambers to maintain a concentration of 100 μM. After three hours, 10 μl was removed from the top chamber of each well and mixed with 90 μl of water in a clear bottom, 96-well plate. Fluorescence values for each sample were calculated using a Perkin Elmer plate reader.

Tie2 = test: Western blot of phospho-Tie2 (Y992) in MEC monolayers treated with AXT107 and angiopoietin; format: cell-based, human; conditions: ligand alone, no AXT107
Procedure: A confluent monolayer of human microvascular endothelial cells (HMEC) was serum starved with EBM-2 overnight. After a 90 min treatment with AXT107 at concentrations of 0, 10, 32, and 100 μM, the cells were treated for 15 min with 1 mM sodium orthovanadate. Next the cells were treated with Angiopoietin-2 (Ang-2) at 200 ng/mL for 15 min. Following cell lysis, the lysates were immunoblotted for pTie2 (Y992), pSTAT3 (Y705), and pAkt (S473).
To investigate the effects of the integrin inhibitor AXT107 on Tie2 signaling, confluent monolayers of microvascular endothelial cells (MECs) on fibronectin-coated dishes were treated with various concentrations of AXT107 followed by exposure to the Tie2 ligands Ang1 or Ang2.
For Ang1/2 signaling investigations, cell culture dishes (10 cm diameter) were coated with 5 μg/ml fibronectin (FN1; Sigma-Aldrich, St. Louis, Mo.) for two hours at 37° C. The FN1 solution was then removed by aspiration and 5×10^6 microvascular endothelial cells (MECs; Lonza, Walkersville, Md.) were plated in EGM-2MV media (Lonza) and cultured for forty-eight hours at 37° C. The cells were then serum starved for sixteen hours in serum-free EGM-2 base media (Lonza). AXT107 (0-100 μM, as indicated) was subsequently added to each culture and incubated for seventy-five minutes at 37° C. The cultures were then treated with 1 mM sodium vanadate (New England Biolabs, Ipswich, Mass.) for fifteen minutes to enhance the phospho-Tie2 signal followed by stimulation with 200 ng/ml angiopoietin (R&D Systems, Minneapolis, Minn.) for an additional fifteen minutes. The cells were then transferred to ice, washed twice with ice cold Dulbecco's phosphate-buffered saline (dPBS) containing Ca^2+ and Mg^2+, and collected by scraping in 500 μl of 1×Blue Loading Buffer (Cell Signaling, Danvers, Mass.). Lysate samples were then sonicated, boiled, and resolved by SDS-PAGE. Specific proteins were identified by Western blot, using the following primary antibodies: Cell Signaling—phospho-Tie2 (Y992) (Cat#: 4221), Tie2 (Cat#: 7403), phospho-Stat3 (Y705) (Cat#: 4113), Stat3 (Cat#: 4904), phospho-Akt (S473) (Cat#: 4058), Akt (Cat#: 9272), phospho-p44/42 MAPK (T202/Y204) (Cat#: 4370), p44/42 MAPK (Cat#: 4695); BD Transduction Laboratories—β1 integrin (Cat#: 610467); Millipore—α5 integrin (Cat#: AB1928) and detected with HRP-conjugated goat anti-rabbit and sheep anti-mouse secondary antibodies (GE healthcare).

Row | Molecule | FITC-dextran diffusion across the monolayer, single treatment (MEC monolayers) | Tie2 phosphorylation by ligand alone (Tie2)
1 | VEGF | appeared to increase permeability (although non-significantly) | –
2 | Ang1: Tie2 ligand; binds Tie2 and stimulates phosphorylation and downstream signaling (protein) SNQRRSPENSGRRYNRIQHGQCAYTFILPEHDGNCRESTTDQYNTNALQRDAPHVEPDFSSQKLQHLEHVMENYTQWLQKLENYIVENMKSEMAQIQQNAVQNHTATMLEIGTSLLSQTAEQTRKLTDVETQVLNQTSRLEIQLLENSLSTYKLEKQLLQQTNEILKIHEKNSLLEHKILEMEGKHKEELDTLKEEKENLQGLVTRQTYIIQELEKQLNRATTNNSVLQKQQLELMDTVHNLVNLCTKEGVLLKGGKREEEKPFRDCADVYQAGFNKSGIYTIYINNMPEPKKVFCNMDVNGGGWTVIQHREDGSLDFQRGWKEYKMGFGNPSGEYWLGNEFIFAITSQRQYMLRIELMDWEGNRAYSQYDRFHIGNEKQNYRLYLKGHTGTAGKQSSLILHGADFSTKDADNDNCMCKCALMLTGGWWFDACGPSNLNGMFYTAGQNHGKLNGIKWHYFKGPSYSLRSTTMMIRPLDF | – | induced phosphorylation
3 | Ang2: Tie2 ligand; endogenous Tie2 antagonist and weak agonist (protein) YNNFRKSMDSIGKKQYQVQHGSCSYTFLLPEMDNCRSSSSPYVSNAVQRDAPLEYDDSVQRLQVLENIMENNTQWLMKLENYIQDNMKKEMVEIQQNAVQNQTAVMIEIGTNLLNQTAEQTRKLTDVEAQVLNQTTRLELQLLEHSLSTNKLEKQILDQTSEINKLQDKNSFLEKKVLAMEDKHIIQLQSIKEEKDQLQVLVSKQNSIIEELEKKIVTATVNNSVLQKQQHDLMETVNNLLTMMSTSNSAKDPTVAKEEQISFRDCAEVFKSGHTTNGIYTLTFPNSTEEIKAYCDMEAGGGGWTIIQRREDGSVDFQRTWKEYKVGFGNPSGEYWLGNEFVSQLTNQQRYVLKIHLKDWEGNEAYSLYEHFYLSSEELNYRIHLKGLTGTAGKISSISQPGNDFSTKDGDNDKCICKCSQMLTGGWWFDACGPSNLNGMYYPQRQNTNKFNGIKWYYWKGSGYSLKATTMMIRPADF | influenced FITC-dextran diffusion across the monolayer | insignificant effects
